Measured values published in patent US20140295012A1, “LATENT HUMAN IMMUNODEFICIENCY VIRUS REACTIVATION” (priority 2011, published 2014).
*1 amine or outer side, *2 acyl side, *3 side chain or, on linkers, in order; H or OH if unused. Where a SMILES comes first, the peptide text is derived from it. Bridges are numbered along the chain shown (N, C = ends). Roman numbers before positions name the chains, in order. [ ]: non-standard residue; d: D form. Actinocin(9to1) = Cc1c2oc3c(C)ccc(C(=O)[*:1])c3nc-2c(C(=O)[*:2])c(N)c1=O; NMeV = CN[C@H](C(=O)O)C(C)C; Sar = CNCC(=O)O

Experiments:
[1] = test system: latently HIV-1 infected primary T cells; assay: Reactivation of latent HIV-1 infection in primary T cells (GFP); assay type: cell-based; conditions: 24 hours
Description: Latently HIV-1 infected primary T cells were treated for 24 hours with aclacinomycin (ACM) or dactinomycin (ActD), or with the anti-CD3 monoclonal antibody (mAb) OKT3. Reactivation levels were determined as a percentage of GFP-positive cells 24 hours after stimulation. Viability of the cells correlates with the size of the symbol.
To determine if aclacinomycin or dactinomycin were capable of reactivating a latent HIV-1 infection in primary T cells, latently HIV-1 infected primary T cells were treated with aclacinomycin or dactinomycin or with the anti-CD3 monoclonal antibody OKT3 for 24 hours. Reactivation of the latent HIV-1 infection was observed by increasing levels of GFP fluorescence.

[2] = test system: latently HIV-1 infected EF7 cells; assay: Priming of latent HIV-1 infection in EF7 T cells (converse sense integration); assay type: cell-based; conditions: 4 ng/ml, 18 hours pretreatment
Description: FIGS. 13A-B show the effect of dactinomycin on latent infection as a function of the orientation of integration relative to the direction of host-gene transcription. HIV-1 can integrate in the same transcriptional orientation as the host-gene or in the converse sense. Two latently HIV-1 infected T cell lines, which were determined to have HIV-1 integrated in the same sense orientation (CA5 cells) (FIG. 13A) and in the converse sense orientation (EF7 cells) (FIG. 13B) were used. For either cell line, the host-gene name, the position of integration and the chromosome number is given. For either T cell line, reactivation levels achieved by TNF-α treatment alone or by TNF-α stimulation following pretreatment with 4 ng/ml dactinomycin for 18 hours are shown. Reactivation levels were determined using flow cytometric analysis for GFP expression. The gray dotted line represents maximum achievable reactivation levels using PMA.
The sense of orientation of the integrated latent virus, relative to the transcriptional direction of the host-gene, was investigated to determine whether the orientation would influence the ability of dactinomycin to prime latent infection for reactivation. […]

NF-κB = NF-κB activity measured by GFP production in Jurkat T cells; assay type: cell-based; conditions: compared with Salmonella typhimurium flagellin
IL-8, TNF-α, and IFN-γ = assay: Cytokine secretion by PBMCs (BioPlex analysis); assay type: cell-based, human; conditions: 24 hours
Description: FIGS. 8A-8C show HRF induced NF-κB and cytokine expression in peripheral blood mononuclear cells (PBMCs). […] PBMCs were activated with optimal concentrations of either PHA-L or with HRF. Cells were harvested at the indicated time points. Nuclear extracts were generated and NF-κB p50 activity and NF-κB p65 activity were determined using the TransAM™ NF-κB family ELISA kit (Active Motif). […] PBMCs from four different healthy donors were stimulated with an anti-CD3/CD28 antibody combination and infected with a GFP reporter virus on day 4 post-stimulation. HIV-1 replication was monitored in the absence (C) or presence of HRF for 5 days and the achieved HIV-1 infection levels were determined by flow cytometric analysis for the percentage of EGFP-positive cells. […] Culture supernatants were collected after 24 hours and the concentrations of a panel of cytokines was determined by BioPlex analysis. […]
Following stimulation of the peripheral blood mononuclear cells (PBMCs) with PHA-L or HIV-1 reactivating factor (HRF), supernatant samples were collected at time points between 12 and 48 hours post stimulation. […] Therefore, cytokine levels in culture supernatant samples from all donors were determined at the 24 hour time point using a customized Milliplex mAP kit for the simultaneous analysis of six human cytokines (IL-2, IL-4, IL-6, IL-8, TNF-α and IFN-γ). […]

[3] = test system: latently HIV-1 infected reporter T cell lines; assay type: cell-based
Description: FIGS. 1A and 1B show culture supernatants from Massilia timonae reactivate latent HIV-1 infection. […] Untreated control cells and HRF-treated cells were subjected to flow cytometric analysis to determine enhanced green fluorescent protein (EGFP) expression as a direct and quantitative marker of HIV-1 expression 24 hours post stimulation. FSC/SSC dot plots are represented to evaluate cell viability as a function of changes in the FSC (cell size)-SSC (granularity) phenotype of the cells. FIG. 1B is a histogram showing the reproducibility of the observed HIV-1 reactivation. Three independent preparations of HRF (batches HRF1-3) on four different latently infected T cell lines (5F3, 8E12, CA5 and 12D4) were tested. The percentage of EGFP positive cells following stimulation is depicted in the histogram. Cell culture supernatants of Pseudomonas aeruginosa cultures, grown under similar conditions, were used as specificity controls.
Infection levels in the cell cultures were monitored by flow cytometric analysis of EGFP expression. Flow cytometric analysis was performed on a GUAVA EasyCyte (Millipore; Billerica, Mass.), or a LSRII (Becton & Dickinson; Franklin Lakes, N.J.).

[4] = test system: HIV-1 replication in PBMCs; assay: HIV-1 replication in PBMCs infected with GFP reporter virus; assay type: cell-based; conditions: saturating HRF levels, 5 days post infection
Description: FIGS. 8A-8C show HRF induced NF-κB and cytokine expression in peripheral blood mononuclear cells (PBMCs). […] PBMCs were activated with optimal concentrations of either PHA-L or with HRF. Cells were harvested at the indicated time points. Nuclear extracts were generated and NF-κB p50 activity and NF-κB p65 activity were determined using the TransAM™ NF-κB family ELISA kit (Active Motif). […] PBMCs from four different healthy donors were stimulated with an anti-CD3/CD28 antibody combination and infected with a GFP reporter virus on day 4 post-stimulation. HIV-1 replication was monitored in the absence (C) or presence of HRF for 5 days and the achieved HIV-1 infection levels were determined by flow cytometric analysis for the percentage of EGFP-positive cells. All infections were normalized to the infection level in the untreated culture and the histogram represents the mean infection levels obtained in 4 donor cultures±standard deviation. […] PBMCs from four healthy donors were left unstimulated (C) or stimulated with an anti-CD3/CD28 antibody combination as a positive control or were stimulated with a concentration of HRF that would trigger maximum HIV-1 reactivation in CA5 T cells. Culture supernatants were collected after 24 hours and the concentrations of a panel of cytokines was determined by BioPlex analysis. […]

Row | Molecule | reactivation of latent HIV-1 infection [1] | priming effect for reactivation by TNF-α [2] | NF-κB activity and NF-κB driven gene expression (NF-κB) | pro-inflammatory cytokine secretion (IL-8, TNF-α, and IFN-γ) (IL-8, TNF-α, and IFN-γ) | cell viability (flow cytometric FSC/SSC analysis) ([3]; culture supernatant on latently infected reporter T cell lines) | HIV-1 reactivation ([3]; four latently infected reporter T cell lines, culture supernatant) | HIV-1 replication [4]
1 | Cc1c2oc3c(C)ccc(C(=O)N[C@@H]4C(=O)N[C@H](C(C)C)C(=O)N5CCC[C@H]5C(=O)N(C)CC(=O)N(C)[C@@H](C(C)C)C(=O)O[C@@H]4C)c3nc-2c(C(=O)N[C@@H]2C(=O)N[C@H](C(C)C)C(=O)N3CCC[C@H]3C(=O)N(C)CC(=O)N(C)[C@@H](C(C)C)C(=O)O[C@@H]2C)c(N)c1=O [dactinomycin] (I: T[dV]P[Sar][NMeV] / II: T[dV]P[Sar][NMeV]; ester I:1-I:C, II:1-II:C; linker I:N-II:N via Actinocin(9to1)) | capable of reactivating latent HIV-1 infections | exerted its priming effect in each integration scenario | – | – | – | – | –
2 | HRF: flagellin polypeptide from Massilia timonae (SEQ ID NO:10), used as bacterial culture supernatant (protein) MASVINTNVPSLNSQRNLSTSQAQLNTSIQRLSSGMRINSAKDDAAGLAISDRMNSQIKGMTQATRNANDGVSMAQTAEGALSSSGDILQRIRELAVQSSNSSNSASDRKALQTEVTQLSSELNRIANTTEFNGQKLMDGTLGTANFQVGANAGQLISMTGANFNTSVYGNNQIAGDAAKAAATTSAAATGAFTISGYLGTSAAINTTDADTAKTIAASINNVTGDTGVTATARTDSFLKSAGGAHTMSLASDNSGTGEAVDISFTVGDGGDTADDYAAAISAFNAQTAKTGVTAEYDAVEKGLKLTNSAGENISLTNKAGSADIDMDTYAADGALMASALTLEAGDVGVANGRVTMDSEKSFSVAEGTDTGFELADSSALKSVAKIDISDFEGAQEAIKVADAALSAVNSQRAEYGALQSRFESAISNLSSSTENLSASRSRIVDTDFAAETAKMTRGQILQQAGTSMLAQANSLPNGVLSLLRG | – | – | lower levels of NF-κB activity and NF-κB driven gene expression than flagellin from Salmonella typhimurium | did not induce meaningful levels | No effect on cell viability | efficiently reactivate latent HIV-1 infection | not significantly increased
